Reference: US20120276537

Test system: ZFNRosa (Rosa26-specific zinc finger nuclease pair) (synthetic construct)
Assay: cell_activity
Conditions: mouse zygote mRNA microinjection; 13 of 58 pups lost XbaI site; ZFN pair, half-sites of the monomers not stated; homologous recombination also seen (pup 22 …)

TGCAACTCCAGTCTTTCTAGAAGATGGGCGGGAGTC (double strand) [Rosa26 intron 1 ZFN target site]
activity (% of pups with NHEJ XbaI loss): 22
